The source of these data is publication PMC2114742.

For this assay, the target named is Turkey gizzard myosin, dephosphorylated (turkey). The assay can be described thus: electron microscopy with streptavidin-gold labelling.

Bounds are passed on as bounds.

Regarding “Turkey gizzard myosin biotinylated with NHS-LC-biotin (complex)”, the percent of the filaments that contained gold particles after 24 h is greater than 95%.
